Test results taken from patent publication US20220267441A1.

How the values were obtained:
[1] = molecular target: purified rhesus CD45 ectodomain (rhesus macaque); experiment: BLI (Octet Red96), IgG on anti-human Fc sensor, 50 nM CD45 ectodomain, 1:1 fit
[2] = molecular target: purified cynomolgus CD45 ectodomain (cynomolgus monkey); experiment: as above
[3] = molecular target: purified cynomolgus CD45 ectodomain (cynomolgus monkey); experiment: BLI (Octet Red96), antibody on anti-human Fc sensor, 300 nM cynomolgus CD45 ectodomain, 1:1 fit
[4] = molecular target: purified cynomolgus CD45 ectodomain (cynomolgus monkey); experiment: BLI (Octet Red96), Table 11; the sentence does not name the species of CD45

Sequence of purified cynomolgus CD45 ectodomain (cynomolgus monkey) (chain, as listed by the source limits assumed, form in doubt): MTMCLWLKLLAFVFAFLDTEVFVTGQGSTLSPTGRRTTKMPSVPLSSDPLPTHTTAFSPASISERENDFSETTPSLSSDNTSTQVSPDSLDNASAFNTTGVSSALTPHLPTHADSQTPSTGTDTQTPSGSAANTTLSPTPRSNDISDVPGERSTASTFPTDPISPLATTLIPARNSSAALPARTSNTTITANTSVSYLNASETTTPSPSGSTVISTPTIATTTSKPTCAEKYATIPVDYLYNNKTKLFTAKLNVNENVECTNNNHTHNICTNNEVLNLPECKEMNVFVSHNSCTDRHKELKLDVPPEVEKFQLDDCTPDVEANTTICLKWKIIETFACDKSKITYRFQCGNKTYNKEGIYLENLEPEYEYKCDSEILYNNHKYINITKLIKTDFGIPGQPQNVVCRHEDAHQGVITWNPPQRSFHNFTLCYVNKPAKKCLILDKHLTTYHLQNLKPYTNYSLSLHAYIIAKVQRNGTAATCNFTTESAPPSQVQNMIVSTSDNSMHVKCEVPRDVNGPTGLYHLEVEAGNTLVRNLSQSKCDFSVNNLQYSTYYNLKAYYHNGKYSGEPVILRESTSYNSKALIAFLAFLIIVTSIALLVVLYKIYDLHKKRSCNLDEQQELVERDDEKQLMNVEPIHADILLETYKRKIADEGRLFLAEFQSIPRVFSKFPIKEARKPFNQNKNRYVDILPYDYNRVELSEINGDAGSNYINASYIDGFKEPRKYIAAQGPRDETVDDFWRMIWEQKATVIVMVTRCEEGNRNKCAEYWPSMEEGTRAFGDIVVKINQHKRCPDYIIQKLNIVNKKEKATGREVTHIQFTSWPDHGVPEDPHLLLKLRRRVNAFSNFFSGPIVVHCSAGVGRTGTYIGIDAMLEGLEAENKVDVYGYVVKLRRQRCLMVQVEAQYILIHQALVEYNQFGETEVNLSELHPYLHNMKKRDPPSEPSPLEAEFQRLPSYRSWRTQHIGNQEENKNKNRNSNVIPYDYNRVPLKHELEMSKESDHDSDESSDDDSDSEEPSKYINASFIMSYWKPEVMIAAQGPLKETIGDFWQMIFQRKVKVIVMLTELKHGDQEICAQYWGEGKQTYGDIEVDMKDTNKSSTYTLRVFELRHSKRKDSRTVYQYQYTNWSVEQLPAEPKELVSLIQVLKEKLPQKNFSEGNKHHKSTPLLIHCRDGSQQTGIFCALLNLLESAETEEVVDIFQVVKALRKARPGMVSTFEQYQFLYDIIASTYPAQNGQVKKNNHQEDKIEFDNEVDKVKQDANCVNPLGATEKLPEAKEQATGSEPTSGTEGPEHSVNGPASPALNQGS
Sequence of purified rhesus CD45 ectodomain (rhesus macaque) (chain, as listed by the source limits assumed, form in doubt): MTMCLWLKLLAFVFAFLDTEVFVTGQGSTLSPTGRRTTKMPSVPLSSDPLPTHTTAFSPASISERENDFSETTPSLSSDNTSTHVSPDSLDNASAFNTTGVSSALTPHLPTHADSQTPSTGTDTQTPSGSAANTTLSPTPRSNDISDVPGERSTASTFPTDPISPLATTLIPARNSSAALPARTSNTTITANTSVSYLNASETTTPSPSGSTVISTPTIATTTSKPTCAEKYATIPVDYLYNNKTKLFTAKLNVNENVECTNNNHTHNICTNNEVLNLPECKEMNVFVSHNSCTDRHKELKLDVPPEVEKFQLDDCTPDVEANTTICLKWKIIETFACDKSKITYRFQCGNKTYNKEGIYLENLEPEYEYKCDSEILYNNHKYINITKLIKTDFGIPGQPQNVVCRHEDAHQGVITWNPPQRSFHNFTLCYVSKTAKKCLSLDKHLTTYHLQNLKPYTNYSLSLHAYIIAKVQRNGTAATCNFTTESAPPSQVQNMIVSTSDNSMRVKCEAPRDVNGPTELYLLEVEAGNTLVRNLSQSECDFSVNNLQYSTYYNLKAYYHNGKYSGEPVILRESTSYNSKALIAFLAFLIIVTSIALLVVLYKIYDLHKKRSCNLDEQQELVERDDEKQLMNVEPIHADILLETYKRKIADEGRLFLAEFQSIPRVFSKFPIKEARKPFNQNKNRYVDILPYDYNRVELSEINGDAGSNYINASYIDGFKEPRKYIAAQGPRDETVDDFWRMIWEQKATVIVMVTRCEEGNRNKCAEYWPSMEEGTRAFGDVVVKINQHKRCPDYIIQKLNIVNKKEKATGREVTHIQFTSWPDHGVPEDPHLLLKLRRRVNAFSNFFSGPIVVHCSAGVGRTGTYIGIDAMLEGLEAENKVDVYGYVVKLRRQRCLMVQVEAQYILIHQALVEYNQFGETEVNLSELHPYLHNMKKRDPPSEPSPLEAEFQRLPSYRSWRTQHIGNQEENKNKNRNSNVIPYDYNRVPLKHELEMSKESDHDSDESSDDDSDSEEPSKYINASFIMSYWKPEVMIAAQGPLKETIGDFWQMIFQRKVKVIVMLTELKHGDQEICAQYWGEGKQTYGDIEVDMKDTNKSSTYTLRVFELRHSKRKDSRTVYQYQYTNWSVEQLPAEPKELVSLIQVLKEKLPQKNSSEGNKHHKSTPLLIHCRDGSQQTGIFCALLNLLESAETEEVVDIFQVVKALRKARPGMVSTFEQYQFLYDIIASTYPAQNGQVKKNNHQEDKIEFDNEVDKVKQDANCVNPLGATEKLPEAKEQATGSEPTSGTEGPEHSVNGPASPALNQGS

Row | Kd [1] [nM] | koff [1] [s⁻¹] | kon [1] [M⁻¹ s⁻¹] | Kd [2] [nM] | koff [2] [s⁻¹] | kon [2] [M⁻¹ s⁻¹] | Kd [3] [nM] | koff [3] [s⁻¹] | kon [3] [M⁻¹ s⁻¹] | fold improved affinity over the parent clone C [4] [fold] | Binder
1 | 4.39 | 0.000544 | 124000 | 4.24 | 0.000537 | 127000 | – | – | – | – | Antibody 7 (Ab7) (antibody, V domains shown) VH: QVQLVESGGGLVKPGGSLRLSCAASGFTFGGYSMNWVRQAPGKGLEWVSYISISGATITYADSVKGRFTISRDNAKNSLYLQMNSLRAEDTAVYYCARGGQYYYDSSDYGEVAFDIWGQGTMVTVSS VL: DIVMTQSPLSLPVTPGEPASISCRSSQSLVSSGYNYLDWYLQKPGQSPQLLIYFGSSRASGVPDRFSGSGSGTDFTLKISRVEAEDVGVYYCMQRRRTPPFTFGGGTKVEIK
2 | – | – | – | – | – | – | 34.1 | 0.000322 | 9440 | – | Antibody A (AbA) (antibody, V domains shown) VH: EVQLLESGGGLVQPGGSLRLSCAASGFTFNNYWMTWVRQAPGKGLEWVSSISSSGGSIYYPDRVKGRFTISRDNSKNTLYLQMNSLRAEDTAVYYCARDERWAGAMDAWGQGTTVTVSS VL: DIQMTQSPSSLSASVGDRVTITCKASQNINKNLDWYQQKPGKAPKLLIYETNNLQTGVPSRFSGSGSGTDFTLTISSLQPEDFATYYCYQHNSRFTFGQGTKLEIK
3 | – | – | – | – | – | – | 25.3 | 0.000282 | 11100 | > 4 | Antibody C (AbC) (antibody, IgG1, V domains shown) VH: EVQLVESGGGLVQPGGSLRLSCAASGFTFNNYWMTWVRQAPGKGLEWVSSISSSGGSIYYPDSVKDRFTISRDNAKNSLYLQMNSLRAEDMAVYYCARLYYYDGGGDAWGQGTLVTVSS VL: GIQMTQSPSSLSASVGDRVTITCKASQDINKYLDWYQQKPGKAPKLLIYNTNNLHTGIPSRFSGSGSGTDYTLTISSLQPEDFATYYCLQHISRWTFGGGTKVEIK
4 | – | – | – | – | – | – | 51.5 | 0.00042 | 8160 | – | Antibody B (AbB) (antibody, IgG1, V domains shown) VH: EVQLVESGGGLVQPGGSLRLSCAASGFTFTNFWMAWIRQAPGKGLEWVASISSSGGSIYYPDSVKDRFTISRDNSKNTLYLQMNSLRAEDTAVYYCVKFHHYSGGGDAWGQGTLVTVSS VL: DIQMTQSPSSLSASVGDRVTITCKASQNINKYLDWYQQKPGKAPKLLIHYTNNLHTGIPSRFSGSGSGTDYTLTISSLQPEDFATYYCLQHSSRWTFGGGTKVEIK

The next lines start with the binder.

Row | Binder | Kd [1] [nM] | koff [1] [s⁻¹] | kon [1] [M⁻¹ s⁻¹] | Kd [2] [nM] | koff [2] [s⁻¹] | kon [2] [M⁻¹ s⁻¹] | Kd [3] [nM] | koff [3] [s⁻¹] | kon [3] [M⁻¹ s⁻¹] | fold improved affinity over the parent clone C [4] [fold]
5 | Antibody 2 (Ab2) (antibody, V domains shown) VH: EVQLVESGGGLVQPGGSLRLSCAASGFTFEAYSMNWVRQAPGKGLEWVSYISLSGATIHYADSVKGRFTISRDNAKNSLYLQMNSLRAEDTAVYYCARGGQYYYDSSDYGEVAFDIWGQGTMVTVSS VL: DIVMTQSPLSLPVTPGEPASISCRSSQSLVSNGYNYLDWYLQKPGQSPQLLIYFGSSRASGVPDRFSGSGSGTDFTLKISRVEAEDVGVYYCMQRRRTPWSFGGGTKVEIK | 1.42 | 0.000192 | 135000 | 1.08 | 0.000129 | 119000 | – | – | – | –
6 | Antibody 6 (Ab6) (antibody, V domains shown) VH: EVQLVESGGGLVQPGGSLRLSCAASGFTFEAYSMNWVRQAPGKGLEWVSYISLSGATIHYADSVKGRFTISRDNAKNSLYLQMNSLRAEDTAVYYCARGGQYYYTSSDYGEVAFDIWGQGTLVTVSS VL: DIVLTQSPLSLPVTPGEPASISCRSSQSLVSSGYNYLDWYLQKPGQSPQLLIYFGSSRASGVPDRFSGSGSGTDFTLKISRVEAEDVGVYYCMQRRRTPWSFGGGTKVEIK | 1.44 | 0.000175 | 122000 | 1.3 | 0.000154 | 118000 | – | – | – | –
7 | Antibody 4 (Ab4) (antibody, V domains shown) VH: EVQLVESGGGLVQPGGSLRLSCAASGFTFEAYSMNWVRQAPGKGLEWVSYISLSGATIHYADSVKGRFTISRDNAKNSLYLQMNSLRAEDTAVYYCARGGQYYYTSSDYGEVAFDIWGQGTMVTVSS VL: DIVMTQSPLSLPVTPGEPASISCRSSQSLVSNGYNYLDWYLQKPGQSPQLLIYFGSSRASGVPDRFSGSGSGTDFTLKISRVEAEDVGVYYCMQRRRTPWSFGGGTKVEIK | 0.867 | 0.000102 | 118000 | 0.721 | 7.89e-05 | 110000 | – | – | – | –
8 | Antibody 3 (Ab3) (antibody, V domains shown) VH: QVQLVESGGGLVKPGGSLRLSCAASGFTFGGYSMNWVRQAPGKGLEWVSYISISGATITYADSVKGRFTISRDNAKNSLYLQMNSLRAEDTAVYYCARGGQYYYDSSDYGEVAFDIWGQGTMVTVSS VL: DIVMTQSPLSLPVTPGEPASISCRSSQSLVSNGYNYLDWYLQKPGQSPQLLIYFGSSRASGVPDRFSGSGSGTDFTLKISRVEAEDVGVYYCMQRRRTPPFTFGGGTKVEIK | 1.65 | 0.000222 | 135000 | 1.61 | 0.000192 | 120000 | – | – | – | –
9 | Antibody 5 (Ab5) (antibody, V domains shown) VH: EVQLVESGGGLVQPGGSLRLSCAASGFTFEAYSMNWVRQAPGKGLEWVSYISLSGATIHYADSVKGRFTISRDNAKNSLYLQMNSLRAEDTAVYYCARGGQYYYTSSDYGEVAFDIWGQGTMVTVSS VL: DIVMTQSPLSLPVTPGEPASISCRSSQSLVSSGYNYLDWYLQKPGQSPQLLIYFGSSRASGVPDRFSGSGSGTDFTLKISRVEAEDVGVYYCMQRRRTPWSFGGGTKVEIK | 1.71 | 0.000193 | 113000 | 1.4 | 0.000164 | 117000 | – | – | – | –
